The values that follow come from paper PMC5663514, “Biochemical characterization of Borrelia burgdorferi’s RecA protein”.

The target in this data set is T1, B. burgdorferi RecA (Borrelia burgdorferi B31, UniProt Q59180 1-365).
T1 sequence: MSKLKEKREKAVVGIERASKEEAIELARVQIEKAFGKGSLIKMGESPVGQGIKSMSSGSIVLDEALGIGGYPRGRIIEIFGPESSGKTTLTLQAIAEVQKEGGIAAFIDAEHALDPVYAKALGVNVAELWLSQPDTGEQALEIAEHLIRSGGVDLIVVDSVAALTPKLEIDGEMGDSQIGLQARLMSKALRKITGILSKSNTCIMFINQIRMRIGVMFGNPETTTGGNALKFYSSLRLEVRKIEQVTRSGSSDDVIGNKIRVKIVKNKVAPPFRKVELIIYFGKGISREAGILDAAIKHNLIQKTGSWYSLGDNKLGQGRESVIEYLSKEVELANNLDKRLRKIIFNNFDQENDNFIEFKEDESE
Nature of the data set: EMSA with glutaraldehyde protein-protein crosslinking; 2 mM Mg2+, 2 mM ATP; affinity increased by ATP, discrete shift and well shifts; 25 mM HEPES pH 7.6, 2 mM MgCl2, 1 mM DTT, 50 mM NaCl, +/- 2 mM ATP; 10 nM DNA molecules; 30°C 5 min, then 0.033% glutaraldehyde 5 min at 20°C/room temperature. The following applies: protein: recombinant; tags: His tag (pET15b NdeI/BamHI, Ni-NTA; N-terminal implied, removal not mentioned); single strand. (In general: Mobility shift assays separate free from complexed probe on a gel.)

B1: OGCB396 95 nt ssDNA (ssDNA)
DNA: TGCAGGCATGCAAGCTTGGCGTAATCATGGTCATAGCTGTTTCCTGTGTGAAATTGTTATCCGCTCACAATTCCACACAACATACGAGCCGGAAG
For B1, the binding result was “binds”.
